{
  "source": "patent US20250382602",
  "conditions_in_all_cases": "nanopore translocation, FLO-MIN112; background mutations not given",
  "key": {"[1]": {"molecular_target": "T1, Dda 1993 K358M K358M (Enterobacteria phage T4) (UniProt P32270)", "T1 sequence": "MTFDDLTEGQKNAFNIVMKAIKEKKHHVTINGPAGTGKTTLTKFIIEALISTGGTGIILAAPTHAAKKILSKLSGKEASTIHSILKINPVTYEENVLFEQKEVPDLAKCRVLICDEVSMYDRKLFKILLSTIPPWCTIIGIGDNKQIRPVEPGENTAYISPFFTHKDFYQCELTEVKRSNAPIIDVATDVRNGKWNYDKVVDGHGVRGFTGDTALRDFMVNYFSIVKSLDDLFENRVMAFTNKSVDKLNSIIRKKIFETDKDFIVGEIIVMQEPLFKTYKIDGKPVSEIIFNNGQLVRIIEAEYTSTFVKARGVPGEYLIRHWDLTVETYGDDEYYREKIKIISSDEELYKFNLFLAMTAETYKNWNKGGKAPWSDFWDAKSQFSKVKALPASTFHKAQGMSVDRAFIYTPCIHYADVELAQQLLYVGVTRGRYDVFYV"}, "[2]": {"molecular_target": "T2, Dda 1993 361I 361I (Enterobacteria phage T4) (UniProt P32270)", "T2 sequence": "T1 sequence with M358K, E361I"}, "[3]": {"molecular_target": "T3, Dda 1993 Y350I Y350I (Enterobacteria phage T4) (UniProt P32270)", "T3 sequence": "T1 sequence with Y350I, M358K"}, "[4]": {"molecular_target": "T4, Dda 1993 K358F K358F (Enterobacteria phage T4) (UniProt P32270)", "T4 sequence": "T1 sequence with M358F"}, "[5]": {"molecular_target": "T5, Dda 1993 354A 354A (Enterobacteria phage T4) (UniProt P32270)", "T5 sequence": "T1 sequence with L354A, M358K"}, "[6]": {"molecular_target": "T6, Dda 1993 K358E K358E (Enterobacteria phage T4) (UniProt P32270)", "T6 sequence": "T1 sequence with M358E"}},
  "note": "Where a chain is given by its changes, count along the chain named.",
  "data": [
    {"substance": "barcoded 3.6 kb DNA analyte ligated to sequencing Y adaptor", "values": [
      {"measurement": "activity (bps speed delta vs control)", "setting": "[1]", "result": -11.8},
      {"measurement": "activity (bps speed delta vs control)", "setting": "[2]", "result": 21.6},
      {"measurement": "activity (bps speed delta vs control)", "setting": "[3]", "result": 2.22},
      {"measurement": "activity (bps speed delta vs control)", "setting": "[4]", "result": -10.9},
      {"measurement": "activity (bps speed delta vs control)", "setting": "[5]", "result": 11.3},
      {"measurement": "activity (bps speed delta vs control)", "setting": "[6]", "result": -7.28}
    ]}
  ]
}
